{"source": "patent US20060026702A1", "about": "“Phosphoinositide 3-kinase mediated inhibition of GPCRs” (DUKE UNIVERSITY, priority 2002, published 2006)", "molecules": {"B1": {"name": "HEAT: 197 amino acid HEAT domain of PI3Kγ, FLAG epitope-tagged (SEQ ID NO: 2), overexpressed in cells (protein, listed as Homo sapiens)", "chain": "MDYKDDDDKHPIALPKHQPTPDDRVRAEMPNQLRKQLEAIIATDTAEDKELLWHFRYESLKHPKAYPKLFSSVKWGQQEIVAKTYQLLARREVWDQSALDVGLTMQLLDCNFSDENVRAIAVQKLESLEDDDVLHYLLQLVQAVKFEPYHDSALARFLLKRGLRNKRIGHFLFWFLRSEIAQSRHYQQRFAVILEAYLRGCGTA", "modifications": "FLAG tag"}}, "format_in_all_cases": "cell-based", "key": {"phospho-PKB": {"tested_on": "phospho-PKB", "experiment": "PKB activation (phospho-PKB immunoblot) in HEK 293 cells", "details": "IGF, carbachol or isoproterenol stimulation; HEAT transfected"}, "V2R-GFP": {"target": "T1, V2R-GFP (Homo sapiens, UniProt P30518)", "T1 construct": "expressed in transfected cells; host or cells: HEK 293", "experiment": "Endocytosis of V2R-GFP in live cells by confocal microscopy", "details": "AVP 10 μM; HEAT co-expressed", "experimental": "Disruption of the endogenous βARK1/PI3K interaction by the HEAT protein attenuated V2R endocytosis. Endocytosis of V2R-GFP in live cells was monitored for 20 min following AVP (10 μM) stimulation in the absence or presence of HEAT protein co-expression using confocal microscopy. HEK 293 cells were transfected with either GFP-V2R (2 μg)/pRK5 (2 μg) or GFP-V2R (2 μg)/HEAT (2 μg). V2R internalization was followed in the same cell after agonist stimulation. Prior to agonist, the distribution of V2R-GFP was found distinctly at the plasma membrane (FIG. 14, 0 min). Following agonist treatment, there was redistribution of the V2R-GFP into membrane puncta consistent with entry into clathrin coated pits. With time, this was followed by the formation of cytoplasmic aggregates, and then with the complete loss of membrane fluorescence (FIG. 14, 6-24 min). […] In FIG. 14, panels on the left represent cells transfected with the V2R-GFP alone (panels show the same cell monitored at 0, 6, 12, 18, and 24 min following stimulation). Panels on the right represent cell transfected with V2R-GFP and HEAT (panels show the same cell monitored as above). In the absence of HEAT, agonist caused the internalization V2R5 as shown by the formation of distinct cytoplasmic aggregates and complete loss of membrane fluorescence."}, "β2AR-YFP": {"target": "T2, β2AR-YFP (Homo sapiens, UniProt P07550)", "T2 construct": "expressed in transfected cells; host or cells: HEK 293", "experiment": "Endocytosis of β2AR-YFP in live cells by confocal microscopy", "details": "10 μM isoproterenol, 10 min; HEAT co-expressed", "experimental": "Confocal Microscopy—Confocal microscopy was performed as previously described. […] Cells were split into 35 mm^2 dishes with glass bottoms for observation using a Zeiss LSM-510 confocal microscope. […] For analyses of the HEAT domain, HEK 293 cells were transfected with the plasmids containing cDNAs encoding either the β2AR-YFP (2 μg) or β2AR-YFP (2 μg) and HEAT domain (4 μg). Cells were plated onto glass bottom dishes for observation in the confocal microscope. […] Cells were permeablized with 0.1% Triton X-100 in phosphate-buffered saline for 20 min, incubated in 1% BSA in phosphate-buffered saline for 1 hr. Cells were washed with 1× phosphate-buffered saline and incubated with anti-HA or anti-FLAG monoclonal antibody (1:250) with 1% BSA in 1× phosphate-buffered saline for 1 hr. Cells were washed and incubated with goat anti-mouse IgG conjugated with Texas Red (1:500) (Molecular Probes) for 1 hr. Samples were visualized using single sequential line excitation filters at 488 and 568 nm and emission filter sets at 505-550 nm for GFP detection and 585 for Texas Red detection.\nPrior to agonist, the distribution of β2AR-YFP was found distinctly at the plasma membrane (FIG. 11B, panel 1). […] With time, this was followed by the formation of cytoplasmic aggregates (FIG. 11B, panel 3), and then with the complete loss of membrane fluorescence (FIG. 11B, panels 3 and 7) (arrowheads)."}, "β2AR": {"tested_on": "β2AR", "experiment": "β2AR sequestration in HEK-293 cells by 125I-Cyanopindolol binding", "details": "1 μM isoproterenol, 0-30 min; FLAG-HEAT co-transfected", "experimental": "Determination of β2AR Sequestration in HEK-293 Cells by ^125I-Cyanopindolol (CYP) Binding—β2AR sequestration was performed as previously described. Briefly, HEK-293 cells were plated at a density of 2.5×10^6 cells/dish and transfected the following day with plasmids containing either the β2AR (150-250 ng), β2AR (250 ng) and HEAT domain (4 μg), PI3Kγ (4.0 μg) or ΔPI3Kγ (4.0 μg) cDNAs. Twelve hours after transfection cells were split into six well Falcon plates at a density of 750,000 cells/well. […] To determine the amount of internalized receptor, 100 μl aliquots of whole cells were added to 150 μl of binding buffer (75 mM Tris-HCl, 10 mM MgCl2, 5 mM EDTA (pH 7.5)). Total binding was determined in the presence of 175 pM ^125I-CYP alone, the number of internalized receptors were determined by using 175 pM ^125I-CYP plus 100 nM CGP12177, and non-specific binding was determined using 175 pM ^125I-CYP plus 1 μM propranolol. Sequestration was calculated as the ratio of (specific receptor binding of ^125I-CYP in the presence of CGP12177)/(specific receptor binding of ^125I-CYP in the absence of CGP12177)."}}, "data": [{"molecule": "B1", "values": [{"measurement": "cellular signaling downstream of PI3K (PKB activation)", "setting": "phospho-PKB", "result": "no effect"}, {"measurement": "receptor endocytosis (redistribution of V2R-GFP)", "setting": "V2R-GFP", "result": "completely inhibited"}, {"measurement": "receptor endocytosis (redistribution of β2AR-YFP)", "setting": "β2AR-YFP", "result": "completely inhibited"}, {"measurement": "attenuation in the rate of β2AR sequestration", "setting": "β2AR", "result": "> 60", "unit": "%"}]}]}
